± gives the standard deviation.
Test: protein stability index of a GFP-peptide fusion (GPS, HEK-293T) (PSI 1-6); higher = more stable
[1] = treatment: DMSO, c terminus: a fixed tail appended
[2] = treatment: MLN4924 1 uM, 8 h, c terminus: a fixed tail appended
[3] = treatment: DMSO, c terminus: native
[4] = treatment: MLN4924 1 uM, 8 h, c terminus: native
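Also: 24-mer peptide tiles fused after GFP, lentivirally expressed, FACS-sorted into six equal bins by GFP/DsRed ratio, decoded by Illumina sequencing, PSI is the read-weighted mean bin number.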

Row | Sequence | protein stability index [1] | protein stability index [2] | protein stability index [3] | protein stability index [4]
1 | CNLWDSHHPEVPQRILRIMCRLEE [HDAC6] | 2.55 ± 0.16 | 2.35 ± 0.28 | – | –
2 | CQNKCRIALVENIPEGLNYSENAP [PLD5] | 3.03 ± 0.45 | 3.23 ± 0.64 | – | –
3 | CRANRNCPIDQHHRNQCQYCRLKK [NR2F2] | 4.2 ± 0.044 | 4.39 ± 0.14 | – | –
4 | CSCLSDILRFIYSGAFQWEELEED [RHOBTB3] | 2.35 ± 0.41 | 1.88 ± 0.34 | – | –
5 | CSDSDKKCHLWTAMDLGFFVVMGV [CLCN6] | 2.95 ± 0.63 | 2.97 ± 0.5 | – | –
6 | CSHNLCQACARNILVQTPESESPQ [TRIM9] | 3.57 ± 0.33 | 3.85 ± 0.33 | – | –
7 | CTMEPEPVQPGMLIDVCKYLGSLQ [TRIM35] | 2.43 ± 0.13 | 2.41 ± 0.22 | – | –
8 | CTRPVPRNGGKYCEGRRTRFRSCN [ADAMTS4] | 3.79 ± 0.14 | 4.12 ± 0.24 | – | –
9 | CVHPRGGVIQSVSSWKHGSGTQYV [C18orf25] | 2.58 ± 0.42 | 2.32 ± 0.39 | – | –
10 | CYYQPAPYVSDGNFSNYYVAHPPV [TENT5C] | 2.24 ± 0.3 | 2.43 ± 0.45 | – | –
11 | DAEGLAARDVQKIIGDYFSDQDPR [INTS4] | 4.95 ± 0.15 | 4.86 ± 0.32 | – | –
12 | DAFVKIVRHEGTRTLWSGLPATLV [SLC25A39] | 2.6 ± 0.61 | 2.03 ± 0.22 | – | –
13 | DAGEESRVQVLKNEVRRGSPVLLG [TIAF1] | 4.33 ± 0.092 | 4.55 ± 0.24 | – | –
14 | DASILTEMPTQPGKPLIPPMNRRN [NETO1] | 4.45 ± 0.25 | 4.64 ± 0.13 | – | –
15 | DATPPVSPINMEDQERIKVERKRL [JUNB] | 5.53 ± 0.2 | 5.36 ± 0.4 | – | –
16 | DCLAAWEEWLLVGTKQGHLLLYRI [VPS39] | 2.92 ± 1.1 | 2.51 ± 0.32 | – | –
17 | DCSFPGLPRHQDQPHHQPPNRAGA [TRAF3IP2] | 4.91 ± 0.062 | 5.03 ± 0.14 | – | –
18 | DDDAEEEGPKRELGVRRPGGAGKE [TCF25] | 5.58 ± 0.2 | 5.66 ± 0.15 | – | –
19 | DDDKGDSKETRLTLMEEVLLLGLK [GOLPH3] | 3.16 ± 0.36 | 3.65 ± 0.32 | – | –
20 | DDPATLGPHLGLRGVPQSTAASS [DYRK1B] | – | – | 3.28 ± 0.28 | 3.29 ± 0.085
21 | DEMYEVRIAAVEALCMLAQSSPSF [INTS4] | 2.69 ± 0.81 | 2.31 ± 0.11 | – | –
22 | DEPSKPTLALEYTYGRRAKGHNTP [DYNC2LI1] | 4.48 ± 0.23 | 4.65 ± 0.21 | – | –

Row | Sequence | protein stability index [1] | protein stability index [2] | protein stability index [3] | protein stability index [4]
23 | DETTRSDISERPSVDDIESETGST [C2CD2L] | 5.68 ± 0.1 | 5.6 ± 0.32 | – | –
24 | DFHKPFLGGFRHKVTGVEYHNAGT [IQUB] | 2.88 ± 0.32 | 2.88 ± 0.16 | – | –
25 | DFKEDLKKFRTKSRTWAGEKSKRE [CDC25A] | 4.88 ± 0.52 | 4.92 ± 0.15 | – | –
26 | DFLAVLSDYPSPDISPPIFRRGEK [SLA] | 2.63 ± 0.18 | 2.75 ± 0.51 | – | –
27 | DGKSLVSVTKEGLELPEDEEEKKK [HSP90AB1] | 5.61 ± 0.2 | 5.44 ± 0.3 | – | –
28 | DGLKRRQQLEEELLRAKIEVEKLK [RAD54B] | 4.67 ± 0.31 | 4.85 ± 0.32 | – | –
29 | DGNKDVYLSLLRMYLSPPSIHCLG [VPS39] | 2.94 ± 0.57 | 2.72 ± 0.33 | – | –
30 | DGSLILVSASRDKTLRVWDLKDDG [WSB1] | 2.74 ± 0.31 | 3.03 ± 0.21 | – | –
31 | DGSVRIWELREKQQLAAEPVPTGF [WDR41] | 3.87 ± 0.16 | 3.72 ± 0.32 | – | –
32 | DHQTLLSAAHEVELQRQKEAEKLE [NOP53] | 5.46 ± 0.15 | 5.42 ± 0.38 | – | –
33 | DHSEHLSGSSYRDALQRYGTSHGA [RBMY1A1] | 3.89 ± 0.12 | 4.37 ± 0.38 | – | –
34 | DHSGFISLDEFRQTWKLFSSHMNI [PPEF2] | 2.29 ± 0.26 | 2.08 ± 0.36 | – | –
35 | DIEDVFYKYGAIRDIDLKNRRGGP [SRSF1] | 3.32 ± 0.48 | 3.39 ± 0.17 | – | –
36 | DINNNFPDLNTLLWEAEDRQNVPR [CPXM2] | 3.78 ± 0.35 | 4.15 ± 0.2 | – | –
37 | DIRLTLMEEVLLLGLKDKEGYTSF [GOLPH3L] | 2.26 ± 0.44 | 2.2 ± 0.55 | – | –
38 | DKSPSTVRDQGPSIPLTPGDTPIR [FBF1] | 5.08 ± 0.18 | 5.26 ± 0.18 | – | –
39 | DLNRHLDEMCANNDFVQVDPGQVG [FAN1] | 4.29 ± 0.4 | 4.63 ± 0.058 | – | –
40 | DLPWFRTLSWYFLLCVNYFFYGET [CDS2] | 3.95 ± 0.26 | 3.23 ± 0.97 | – | –
41 | DLSAANEKNLLLQNQVDELERKFR [LRRC45] | 3.96 ± 0.38 | 4.08 ± 0.62 | – | –
42 | DMWRSENQNRAYVTLAAHFLGLGA [ZBED1] | 2.13 ± 0.24 | 2.01 ± 0.4 | – | –
43 | DNIREAFQIYDKEASGYVDRDMFF [EFHC1] | 3.5 ± 0.29 | 3.42 ± 0.18 | – | –
44 | DPDGKKIKQIQQLFEEILSNSRQL [FBXO33] | 2.54 ± 0.41 | 2.77 ± 0.24 | – | –

Row | Sequence | protein stability index [1] | protein stability index [2] | protein stability index [3] | protein stability index [4]
45 | DPLTYKSRLMVVVKMDSSIQPGPF [RHOBTB2] | 2.05 ± 0.53 | 2.08 ± 0.25 | – | –
46 | DPRVQDFLQRCLESPFSRKLDLWS [NET1] | 2.34 ± 0.25 | 2.27 ± 0.25 | – | –
47 | DPRYELPSRKYISTKAIPEKYGAV [ZBED1] | 3.55 ± 0.18 | 3.55 ± 0.19 | – | –
48 | DPSKLDSGKELKIDIIPNPQERTL [HSP90AB1] | 5.15 ± 0.11 | 5.31 ± 0.078 | – | –
49 | DPTQRILYRDVMLETFGHLLSIGP [ZNF8] | 2.21 ± 0.23 | 2.25 ± 0.22 | – | –
50 | DPYLSYRWKRRRSYSREHEGRLRY [CLK3] | 3.54 ± 0.33 | 3.57 ± 0.56 | – | –
51 | DQDGEYCPEVKLKTTGLEEAAEAE [SRPK2] | 5.63 ± 0.3 | 5.81 ± 0.18 | – | –
52 | DQFIPIWTVANMEEIKKLTTDPDL [LARP4] | 3.97 ± 0.12 | 3.82 ± 0.42 | – | –
53 | DRLWRPSKVLSLQDLCCRAVVSCT [RAB40B] | 3.01 ± 0.17 | 2.8 ± 0.21 | – | –
54 | DSDEATAARLLFNMAGVTFRKFIP [DCTD] | 2.55 ± 0.19 | 2.58 ± 0.59 | – | –
55 | DSEEEVIERANNVKYGLAATVWSS [ALDH8A1] | 4.03 ± 0.17 | 4.15 ± 0.17 | – | –
56 | DSNSGCLGDTQFCFRFRQSSGRRV [DENND6A] | 3.24 ± 0.35 | 3.06 ± 0.52 | – | –
57 | DSQAPAGSLDLVPGGLTLEEHSLE [SPDEF] | 5.36 ± 0.21 | 5.45 ± 0.33 | – | –
58 | DSVKVALLETNPYLLALTIIVSIV [CLPTM1] | 2.08 ± 0.28 | 2.3 ± 0.14 | – | –
59 | DTFHQDNQPSGLIRTYLGRSPLVS [RHOBTB3] | 3.24 ± 0.1 | 3.24 ± 0.16 | – | –
60 | DTVFRFDPRYNKWMQVASLNEKRT [KLHL13] | 2.87 ± 0.41 | 3.14 ± 0.41 | – | –
61 | DVVKTQRQVALGAMEAVRVNPLHV [SLC25A39] | 3.05 ± 0.22 | 3.23 ± 0.13 | – | –
62 | DWVMWAVNEFSLKGVDFQKFCMNG [ETS1] | 3.16 ± 0.39 | 3.05 ± 0.47 | – | –
63 | DYRQEQPETFWIQRAPQLPTWWPL [SPAG8] | 2.48 ± 0.15 | 2.57 ± 0.19 | – | –
64 | EADPPASDLPTPQAIEPQAIVQQV [SNX8] | 5.34 ± 0.11 | 5.2 ± 0.24 | – | –
65 | EAGASLVDQKLELNIVPRTKVVYL [PI4K2A] | 2.29 ± 0.26 | 2.34 ± 0.47 | – | –
66 | EAGNEFKNIFGTPEFVAPEIVNYE [DAPK3] | 4.02 ± 0.1 | 4.66 ± 0.1 | – | –

Row | Sequence | protein stability index [1] | protein stability index [2] | protein stability index [3] | protein stability index [4]
67 | EALGFSWHDTCFVCAICQINLEGK [PDLIM7] | 2.48 ± 0.82 | 1.63 ± 0.26 | – | –
68 | EALKHPWVCQRSTVASMMHRQETV [CAMK2B] | 2.88 ± 0.27 | 2.97 ± 0.21 | – | –
69 | EAVESTLQTPLDIRLKESINCQLS [TRIM14] | 4.38 ± 0.44 | 4.34 ± 0.36 | – | –
70 | EDGSVELESQVQKDGVADSTVISS [C18orf25] | 5.5 ± 0.2 | 5.42 ± 0.28 | – | –
71 | EDHIAHIIELLGSIPRHFALSGKY [SRPK2] | 2.71 ± 0.4 | 2.63 ± 0.58 | – | –
72 | EDHIDDAKYCGHLYGLGSGSSYVQ [CNOT7] | 3.38 ± 0.16 | 3.41 ± 0.26 | – | –
73 | EDLELKKKIFAQLDSIIDDRVILS [CRYL1] | 3.28 ± 0.26 | 3.01 ± 0.36 | – | –
74 | EDSIFGDPKKLLTQYFVQENYLEY [MAGEA6] | 2.88 ± 0.34 | 2.62 ± 0.11 | – | –
75 | EDTPSDNDSGICMSPESYLGSPQH [ATF4] | 4.66 ± 0.36 | 4.83 ± 0.22 | – | –
76 | EDTQTDADSSAQAAAQAPENFQEG [TAF7L] | 5.47 ± 0.52 | 5.57 ± 0.42 | – | –
77 | EEAVTVLEDLESELDDPGQPVSLR [ZNF24] | 5.58 ± 0.24 | 5.47 ± 0.21 | – | –
78 | EECRMSGEFPSPVSISIISSTSGG [KRT71] | 3.59 ± 0.25 | 3.6 ± 0.4 | – | –
79 | EEDENGLPRRRGLRKKKTTKLRLE [NEUROD6] | 4.9 ± 0.28 | 4.94 ± 0.35 | – | –
80 | EEEEEEEEVDLACTPTDVRDVDI [CCND1] | – | – | 4.5 ± 0.5 | 5.14 ± 0.34
81 | EEEEEGRFYYSEDDHGDECSYTDL [KCNA4] | 5.4 ± 0.12 | 5.33 ± 0.2 | – | –
82 | EEETYKCLECGKSFCHGSSLKRHL [ZNF449] | 3.77 ± 0.5 | 3.78 ± 0.79 | – | –
83 | EEINKNISDFGRQQLLPPFPSLHQ [EHMT1] | 3.08 ± 0.27 | 3.64 ± 0.4 | – | –
84 | EEITEESLEESVGKPLYLIFRNLC [INTS3] | 2.79 ± 0.58 | 2.88 ± 0.38 | – | –
85 | EEQALTKAAEGGLSSPEFSELCIW [FAM98B] | 3.72 ± 0.052 | 3.65 ± 0.11 | – | –
86 | EFSSVGTEMIITKAGRRMFPACRV [TBX6] | 2.7 ± 0.21 | 2.66 ± 0.34 | – | –
87 | EGDPGSKQPRKKRGRYRQYNSEIL [LCOR] | 4.64 ± 0.22 | 4.55 ± 0.28 | – | –
88 | EGGGTSLHVACELARPECLFLLLG [ANKRD9] | 2.03 ± 0.091 | 2.06 ± 0.67 | – | –
